The chains are these.
T1: EsCas13d, nuclease-dead (Eubacterium siraeum, UniProt B0MS50, R295A;H300A;R849A;H854A)
T1 sequence: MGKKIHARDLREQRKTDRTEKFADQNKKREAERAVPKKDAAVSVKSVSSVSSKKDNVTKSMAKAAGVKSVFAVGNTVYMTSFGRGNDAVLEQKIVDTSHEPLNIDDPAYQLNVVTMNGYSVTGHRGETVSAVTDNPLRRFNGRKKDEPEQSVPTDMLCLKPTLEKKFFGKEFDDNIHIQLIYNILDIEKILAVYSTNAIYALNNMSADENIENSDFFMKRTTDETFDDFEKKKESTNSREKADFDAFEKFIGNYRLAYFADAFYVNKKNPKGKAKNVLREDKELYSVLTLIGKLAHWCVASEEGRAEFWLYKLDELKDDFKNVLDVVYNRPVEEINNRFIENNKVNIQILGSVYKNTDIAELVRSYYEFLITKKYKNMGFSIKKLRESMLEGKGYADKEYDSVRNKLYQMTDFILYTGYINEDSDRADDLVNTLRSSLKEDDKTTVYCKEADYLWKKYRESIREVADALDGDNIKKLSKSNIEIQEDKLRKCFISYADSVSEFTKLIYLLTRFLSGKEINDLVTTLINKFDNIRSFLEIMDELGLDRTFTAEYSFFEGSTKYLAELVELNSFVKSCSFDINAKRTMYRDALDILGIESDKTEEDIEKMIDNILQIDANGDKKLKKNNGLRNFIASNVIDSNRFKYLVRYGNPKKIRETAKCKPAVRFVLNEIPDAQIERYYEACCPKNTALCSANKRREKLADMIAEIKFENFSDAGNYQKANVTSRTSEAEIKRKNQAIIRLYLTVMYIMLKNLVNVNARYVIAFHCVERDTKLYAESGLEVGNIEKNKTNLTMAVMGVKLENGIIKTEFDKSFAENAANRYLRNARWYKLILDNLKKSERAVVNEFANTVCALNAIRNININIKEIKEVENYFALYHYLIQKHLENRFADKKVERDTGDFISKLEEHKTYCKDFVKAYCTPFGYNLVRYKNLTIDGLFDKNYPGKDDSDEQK

B1: target 1 A1C,U3C (mixed)
RNA 1: CACCCGUGCAAAAAUGCAGGGGUCUAAAACUGAGCGGAUAACCUCUCUAUGG
RNA 2: GGGAAUGGAUCCACAUCUACGAAUUCGUACCAUAGAGAGGUUAUCCGCCCCCCGAGAUCGGAAGAGCACACGU
B2: target 1 insC 3' of 20,insU 3' of 9 (mixed)
RNA 1: CACCCGUGCAAAAAUGCAGGGGUCUAAAACUGAGCGGAUAACCUCUCUAUGG
RNA 2: GGGAAUGGAUCCACAUCUACGAAUUCGUACCACUAGAGAGGUUAUUCCGCUCACCGAGAUCGGAAGAGCACACGU
B3: target 1 insA 3' of 17,insG 3' of 4 (mixed)
RNA 1: CACCCGUGCAAAAAUGCAGGGGUCUAAAACUGAGCGGAUAACCUCUCUAUGG
RNA 2: GGGAAUGGAUCCACAUCUACGAAUUCGUACCAUAGAAGAGGUUAUCCGCGUCACCGAGAUCGGAAGAGCACACGU
B4: target 3 G4C,C6U (mixed)
RNA 1: CACCCGUGCAAAAUUGCAGGGGUCUAAAACGACCUGAAUAUUUCAGAUCAAA
RNA 2: GGGAAUGGAUCCACAUCUACGAAUUCGUUUUUGAUCUGAAAUAUUUACGUCUGCAGAUCGGAAGAGCACACGU
B5: target 3 insG 3' of 7,insG 3' of 7 (mixed)
RNA 1: CACCCGUGCAAAAUUGCAGGGGUCUAAAACGACCUGAAUAUUUCAGAUCAAA
RNA 2: GGGAAUGGAUCCACAUCUACGAAUUCGUUUUUGAUCUGAAAUAUUGGCAGGUCUGCAGAUCGGAAGAGCACACGU
B6: target 3 G4A,U8A (mixed)
RNA 1: CACCCGUGCAAAAUUGCAGGGGUCUAAAACGACCUGAAUAUUUCAGAUCAAA
RNA 2: GGGAAUGGAUCCACAUCUACGAAUUCGUUUUUGAUCUGAAAUAAUCAAGUCUGCAGAUCGGAAGAGCACACGU
B7: target 3 U2C,G4A (mixed)
RNA 1: CACCCGUGCAAAAUUGCAGGGGUCUAAAACGACCUGAAUAUUUCAGAUCAAA
RNA 2: GGGAAUGGAUCCACAUCUACGAAUUCGUUUUUGAUCUGAAAUAUUCAAGCCUGCAGAUCGGAAGAGCACACGU
B8: target 3 insA 3' of 21,insG 3' of 6 (mixed)
RNA 1: CACCCGUGCAAAAUUGCAGGGGUCUAAAACGACCUGAAUAUUUCAGAUCAAA
RNA 2: GGGAAUGGAUCCACAUCUACGAAUUCGUUUUAUGAUCUGAAAUAUUCGAGGUCUGCAGAUCGGAAGAGCACACGU
B9: target 3 C1U,A5C (mixed)
RNA 1: CACCCGUGCAAAAUUGCAGGGGUCUAAAACGACCUGAAUAUUUCAGAUCAAA
RNA 2: GGGAAUGGAUCCACAUCUACGAAUUCGUUUUUGAUCUGAAAUAUUCCGGUUUGCAGAUCGGAAGAGCACACGU
B10: target 3 insA 3' of 6,insG 3' of 2 (mixed)
RNA 1: CACCCGUGCAAAAUUGCAGGGGUCUAAAACGACCUGAAUAUUUCAGAUCAAA
RNA 2: GGGAAUGGAUCCACAUCUACGAAUUCGUUUUUGAUCUGAAAUAUUCAAGGUGCUGCAGAUCGGAAGAGCACACGU
B11: target 3 C1G,G3U (mixed)
RNA 1: CACCCGUGCAAAAUUGCAGGGGUCUAAAACGACCUGAAUAUUUCAGAUCAAA
RNA 2: GGGAAUGGAUCCACAUCUACGAAUUCGUUUUUGAUCUGAAAUAUUCAGUUGUGCAGAUCGGAAGAGCACACGU
B12: target 3 G4U,U22G (mixed)
RNA 1: CACCCGUGCAAAAUUGCAGGGGUCUAAAACGACCUGAAUAUUUCAGAUCAAA
RNA 2: GGGAAUGGAUCCACAUCUACGAAUUCGUUGUUGAUCUGAAAUAUUCAUGUCUGCAGAUCGGAAGAGCACACGU
B13: target 3 insG 3' of 9,insA 3' of 3 (mixed)
RNA 1: CACCCGUGCAAAAUUGCAGGGGUCUAAAACGACCUGAAUAUUUCAGAUCAAA
RNA 2: GGGAAUGGAUCCACAUCUACGAAUUCGUUUUUGAUCUGAAAUAGUUCAGGAUCUGCAGAUCGGAAGAGCACACGU
B14: target 3 U2G,U10A (mixed)
RNA 1: CACCCGUGCAAAAUUGCAGGGGUCUAAAACGACCUGAAUAUUUCAGAUCAAA
RNA 2: GGGAAUGGAUCCACAUCUACGAAUUCGUUUUUGAUCUGAAAAAUUCAGGGCUGCAGAUCGGAAGAGCACACGU
B15: target 3 insU 3' of 14,insG 3' of 2 (mixed)
RNA 1: CACCCGUGCAAAAUUGCAGGGGUCUAAAACGACCUGAAUAUUUCAGAUCAAA
RNA 2: GGGAAUGGAUCCACAUCUACGAAUUCGUUUUUGAUCUGUAAAUAUUCAGGUGCUGCAGAUCGGAAGAGCACACGU
B16: target 3 G3C,A5G (mixed)
RNA 1: CACCCGUGCAAAAUUGCAGGGGUCUAAAACGACCUGAAUAUUUCAGAUCAAA
RNA 2: GGGAAUGGAUCCACAUCUACGAAUUCGUUUUUGAUCUGAAAUAUUCGGCUCUGCAGAUCGGAAGAGCACACGU
B17: target 3 insA 3' of 8,insC 3' of 3 (mixed)
RNA 1: CACCCGUGCAAAAUUGCAGGGGUCUAAAACGACCUGAAUAUUUCAGAUCAAA
RNA 2: GGGAAUGGAUCCACAUCUACGAAUUCGUUUUUGAUCUGAAAUAUAUCAGGCUCUGCAGAUCGGAAGAGCACACGU
B18: target 3 U20C (mixed)
RNA 1: CACCCGUGCAAAAUUGCAGGGGUCUAAAACGACCUGAAUAUUUCAGAUCAAA
RNA 2: GGGAAUGGAUCCACAUCUACGAAUUCGUUUUCGAUCUGAAAUAUUCAGGUCUGCAGAUCGGAAGAGCACACGU
B19: target 3 del2,del22 (mixed)
RNA 1: CACCCGUGCAAAAUUGCAGGGGUCUAAAACGACCUGAAUAUUUCAGAUCAAA
RNA 2: GGGAAUGGAUCCACAUCUACGAAUUCGUUUUGAUCUGAAAUAUUCAGGCUGCAGAUCGGAAGAGCACACGU
B20: target 3 insC 3' of 4,insU 3' of 4 (mixed)
RNA 1: CACCCGUGCAAAAUUGCAGGGGUCUAAAACGACCUGAAUAUUUCAGAUCAAA
RNA 2: GGGAAUGGAUCCACAUCUACGAAUUCGUUUUUGAUCUGAAAUAUUCAGCUGUCUGCAGAUCGGAAGAGCACACGU
B21: target 3 insC 3' of 22,insA 3' of 6 (mixed)
RNA 1: CACCCGUGCAAAAUUGCAGGGGUCUAAAACGACCUGAAUAUUUCAGAUCAAA
RNA 2: GGGAAUGGAUCCACAUCUACGAAUUCGUUUCUUGAUCUGAAAUAUUCAAGGUCUGCAGAUCGGAAGAGCACACGU
B22: target 3 A18G,U21C (mixed)
RNA 1: CACCCGUGCAAAAUUGCAGGGGUCUAAAACGACCUGAAUAUUUCAGAUCAAA
RNA 2: GGGAAUGGAUCCACAUCUACGAAUUCGUUUCUGGUCUGAAAUAUUCAGGUCUGCAGAUCGGAAGAGCACACGU
B23: target 3 C1U,U8G (mixed)
RNA 1: CACCCGUGCAAAAUUGCAGGGGUCUAAAACGACCUGAAUAUUUCAGAUCAAA
RNA 2: GGGAAUGGAUCCACAUCUACGAAUUCGUUUUUGAUCUGAAAUAGUCAGGUUUGCAGAUCGGAAGAGCACACGU
B24: target 3 insG 3' of 18,insU 3' of 1 (mixed)
RNA 1: CACCCGUGCAAAAUUGCAGGGGUCUAAAACGACCUGAAUAUUUCAGAUCAAA
RNA 2: GGGAAUGGAUCCACAUCUACGAAUUCGUUUUUGAGUCUGAAAUAUUCAGGUCUUGCAGAUCGGAAGAGCACACGU
B25: target 3 insU 3' of 6,insC 3' of 5 (mixed)
RNA 1: CACCCGUGCAAAAUUGCAGGGGUCUAAAACGACCUGAAUAUUUCAGAUCAAA
RNA 2: GGGAAUGGAUCCACAUCUACGAAUUCGUUUUUGAUCUGAAAUAUUCUACGGUCUGCAGAUCGGAAGAGCACACGU
B26: target 3 del2,del4 (mixed)
RNA 1: CACCCGUGCAAAAUUGCAGGGGUCUAAAACGACCUGAAUAUUUCAGAUCAAA
RNA 2: GGGAAUGGAUCCACAUCUACGAAUUCGUUUUUGAUCUGAAAUAUUCAGCUGCAGAUCGGAAGAGCACACGU
B27: target 3 G3C,C6A (mixed)
RNA 1: CACCCGUGCAAAAUUGCAGGGGUCUAAAACGACCUGAAUAUUUCAGAUCAAA
RNA 2: GGGAAUGGAUCCACAUCUACGAAUUCGUUUUUGAUCUGAAAUAUUAAGCUCUGCAGAUCGGAAGAGCACACGU

This series concerns the target T1, EsCas13d, nuclease-dead. Briefly: crRNA (strand 1, pre-loaded); Mg2+; 40 mM Tris-HCl pH 7.5, 150 mM NaCl, 6 mM MgCl2, 1 mM DTT, 0.1% Tween-20, 0.2 mg/ml BSA; 25 C; 10 min per concentration, then washed. To be noted: tags: His6-TwinStrep-SUMO cleaved; N-terminal SNAP kept (SNAP-Surface 488); label: 3' end held by stalled T7 RNA polymerase.
For B1, the affinity, expressed as Kd, was 18 ± 4 nM.
With B2 the figure was 8 ± 0.9 nM; with B3, 10.2 ± 0.4 nM.
With B4 the figure was 20.2 ± 1.85 nM; with B5, 41.5 ± 5.5 nM; with B6, 76.5 ± 9.5 nM.
The molecule B7 returned a Kd of 16.9 ± 2.45 nM.
As for B8, the equilibrium dissociation constant (Kd) amounted to 48.5 ± 6.5 nM.
With B9 the figure was 60.5 ± 9.5 nM; with B10, 4.05 ± 0.6 nM; with B11, 18.6 ± 3.35 nM.
With B12, binding was put at a Kd of 37 ± 6 nM.
With B13 the figure was 55.5 ± 12.5 nM; with B14, 63 ± 16 nM; with B15, 33.5 ± 11 nM.
With B16 the figure was 16.1 ± 1.4 nM; with B17, 43 ± 7 nM; with B18, 62.5 ± 18 nM.
With B19 the figure was 5.25 ± 0.7 nM.
The molecule B20 returned a dissociation constant Kd of 25 ± 3.25 nM.
The molecule B21 returned a Kd of 14.8 ± 1.95 nM.
With B22 the figure was 75 ± 26 nM; with B23, 64.5 ± 16.5 nM; with B24, 82.5 ± 17 nM.
B25: binding was put at a Kd of 15.4 ± 1.45 nM.
With B26 the figure was 36.9 ± 5.2 nM.
B27: the dissociation constant Kd is 27 ± 2 nM.
